Assay results taken from paper PMC3951675 (Journal of molecular biology, 2013).

B1: isolated regulatory domain of tyrosine hydroxylase (RDTyrH, residues 1-159) (domain or fragment, rat, UniProt P04177 1-159, looked up)
chain: MPTPSAPSPQPKGFRRAVSEQDAKQAEAVTSPRFIGRRQSLIEDARKEREAAAAAAAAAVASSEPGNPLEAVVFEERDGNAVLNLLFSLRGTKPSSLSRAVKVFETFEAKIHHLETRPAQRPLAGSPHLEYFVRFEVPSGDLAALLSSVRRVSDDVRSA
B2: regulatory domain of tyrosine hydroxylase lacking the first 64 residues (RDTyrH_(65-159)) (domain or fragment, rat, UniProt P04177 65-159, looked up)
chain: PGNPLEAVVFEERDGNAVLNLLFSLRGTKPSSLSRAVKVFETFEAKIHHLETRPAQRPLAGSPHLEYFVRFEVPSGDLAALLSSVRRVSDDVRSA

Experiments:
AUC = target: the molecule itself; experiment: AUC
SEC = target: the molecule itself; experiment: SEC

Protein	stoichiometry N (AUC)	stoichiometry N (SEC)
B1	2	–
B2	–	2
